Assay [1] deals with 3H-cholesterol. Kind of assay: 3H-cholesterol binding to recombinant GST-tagged protein; GST-Myd88 recovered and radioactivity measured. Particulars: 3H-cholesterol 10 μM; n = 3; mean ± SD; parent: est. 3900; read off a plot.
Assay [2] deals with T1, Myd88 CRAC domain (Mus musculus, UniProt P22366).
T1 construct: CRAC-A Tyr187, CRAC-B Tyr227
The assay is described as follows: NBD-cholesterol fluorescence binding assay. Conditions: labelled compound; paper words the KD as that of cholesterol; NBD position (22- or 25-) not told.

T1 sequence (P22366 whole entry, the tested form may be a part): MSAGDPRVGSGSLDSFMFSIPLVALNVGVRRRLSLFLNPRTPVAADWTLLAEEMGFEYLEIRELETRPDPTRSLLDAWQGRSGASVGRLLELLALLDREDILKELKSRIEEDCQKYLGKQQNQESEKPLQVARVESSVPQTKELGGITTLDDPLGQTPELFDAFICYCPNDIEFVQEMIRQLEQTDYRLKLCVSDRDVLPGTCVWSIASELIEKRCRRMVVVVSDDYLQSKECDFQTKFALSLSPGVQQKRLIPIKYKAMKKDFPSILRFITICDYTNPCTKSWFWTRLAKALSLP

Turning to “GST-tagged mouse Myd88 (from UniProt P22366) Y227F”, the response in assay [1] worked out at 1900 CPM. Consider `C[C@H](CNc1ccc([N+](=O)[O-])c2nonc12)[C@H]1CC[C@H]2[C@@H]3CC=C4C[C@@H](O)CC[C@]4(C)[C@H]3CC[C@]12C` [NBD-cholesterol], for which, in assay [2], binding was characterised by a dissociation constant (Kd) of 14.1 µM.

The values are drawn from paper PMC9746817, “Activated cholesterol metabolism is integral for innate macrophage responses by amplifying Myd88 signaling” (JCI Insight, 2022).
